Measured values: the supplement of paper PMC9112550, “Optimization of the antimicrobial peptide Bac7 by deep mutational scanning” (BMC Biology, 2022)
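Further: peptides expressed intracellularly from a pBAD plasmid library in pooled LB shake-flask culture, induced with 0.3% L-arabinose, DNA abundance read by NGS, three biological replicates, DESeq2 with apeglm shrinkage.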

The sequences below were run on Escherichia coli TOP10 (assay: shrunken log2 fold change of peptide-encoding DNA abundance (4.5 h post-induction vs induction); higher = less antimicrobial activity (less host growth inhibition)). Conditions: time post-induction: 4.5 h; library: site-saturation at positions 5, 18, 19, 20.
In the case of RRIRIRPPRLPRPRPRPKQIPRP, the “shrunken log2 fold change” value is reported as -0.205.
With RRIRFRPPRLPRPRPRPPCYPRP the “shrunken log2 fold change” value was -0.227.
RRIRRRPPRLPRPRPRPNNIPRP was tested, and the “shrunken log2 fold change” value was -0.556.
With RRIRVRPPRLPRPRPRPHFFPRP the “shrunken log2 fold change” value was -0.0497.
RRIRIRPPRLPRPRPRPAYVPRP was tested, and the “shrunken log2 fold change” value was -0.354.
With RRIRYRPPRLPRPRPRPGLMPRP the “shrunken log2 fold change” value was -0.103.
In the case of RRIRMRPPRLPRPRPRPAHHPRP, the “shrunken log2 fold change” value is reported as 0.0701.
RRIRKRPPRLPRPRPRPREGPRP was tested, and the “shrunken log2 fold change” value was 1.08.
With RRIRMRPPRLPRPRPRPGHNPRP the “shrunken log2 fold change” value was 0.231.
In the case of RRIRHRPPRLPRPRPRPTVDPRP, the “shrunken log2 fold change” value is reported as -0.0548.
For RRIRFRPPRLPRPRPRPTPNPRP, the “shrunken log2 fold change” value was 0.296.
In the case of RRIRKRPPRLPRPRPRPHRRPRP, the “shrunken log2 fold change” value is reported as 3.99.
For RRIRTRPPRLPRPRPRPQKYPRP, the “shrunken log2 fold change” value was -0.263.
In the case of RRIRERPPRLPRPRPRPTCAPRP, the “shrunken log2 fold change” value is reported as -0.162.
For RRIRWRPPRLPRPRPRPLWMPRP, the “shrunken log2 fold change” value was 0.151.
For RRIRHRPPRLPRPRPRPMMAPRP, the “shrunken log2 fold change” value was 0.183.
RRIRMRPPRLPRPRPRPPSSPRP was tested, and the “shrunken log2 fold change” value was -0.0366.
In the case of RRIRERPPRLPRPRPRPPGIPRP, the “shrunken log2 fold change” value is reported as -0.0106.
For RRIRVRPPRLPRPRPRPWRCPRP, the “shrunken log2 fold change” value was -0.0179.
With RRIRVRPPRLPRPRPRPQNRPRP the “shrunken log2 fold change” value was 0.112.
In the case of RRIRPRPPRLPRPRPRPKIWPRP, the “shrunken log2 fold change” value is reported as 0.407.
In the case of RRIRIRPPRLPRPRPRPMRWPRP, the “shrunken log2 fold change” value is reported as -0.0141.
RRIRCRPPRLPRPRPRPYGYPRP was tested, and the “shrunken log2 fold change” value was -0.0837.
In the case of RRIRIRPPRLPRPRPRPITPPRP, the “shrunken log2 fold change” value is reported as -0.421.
RRIRSRPPRLPRPRPRPYNFPRP was tested, and the “shrunken log2 fold change” value was -0.36.
With RRIRVRPPRLPRPRPRPCHMPRP the “shrunken log2 fold change” value was -0.19.
In the case of RRIRPRPPRLPRPRPRPENVPRP, the “shrunken log2 fold change” value is reported as -0.2.
With RRIRVRPPRLPRPRPRPCRQPRP the “shrunken log2 fold change” value was -0.0134.
For RRIRDRPPRLPRPRPRPQHPPRP, the “shrunken log2 fold change” value was -0.00435.
With RRIRHRPPRLPRPRPRPMKPPRP the “shrunken log2 fold change” value was -0.0628.
RRIRGRPPRLPRPRPRPRDWPRP was tested, and the “shrunken log2 fold change” value was 1.25.
RRIRMRPPRLPRPRPRPNFCPRP was tested, and the “shrunken log2 fold change” value was 0.0533.
In the case of RRIRMRPPRLPRPRPRPEKFPRP, the “shrunken log2 fold change” value is reported as -0.000921.
RRIRDRPPRLPRPRPRPRTKPRP was tested, and the “shrunken log2 fold change” value was 0.16.
RRIRVRPPRLPRPRPRPNHGPRP was tested, and the “shrunken log2 fold change” value was -0.0115.
In the case of RRIRNRPPRLPRPRPRPFAKPRP, the “shrunken log2 fold change” value is reported as 0.637.
For RRIRDRPPRLPRPRPRPNCYPRP, the “shrunken log2 fold change” value was -0.414.
RRIRSRPPRLPRPRPRPNKAPRP was tested, and the “shrunken log2 fold change” value was 0.0174.
With RRIRDRPPRLPRPRPRPERKPRP the “shrunken log2 fold change” value was 0.0234.
RRIRIRPPRLPRPRPRPWHMPRP was tested, and the “shrunken log2 fold change” value was -0.0375.
RRIRGRPPRLPRPRPRPGHDPRP was tested, and the “shrunken log2 fold change” value was 0.0495.
For RRIRNRPPRLPRPRPRPDQSPRP, the “shrunken log2 fold change” value was 0.00307.
RRIRFRPPRLPRPRPRPPHAPRP was tested, and the “shrunken log2 fold change” value was 0.491.
In the case of RRIRWRPPRLPRPRPRPQVRPRP, the “shrunken log2 fold change” value is reported as 0.037.
In the case of RRIRPRPPRLPRPRPRPHRAPRP, the “shrunken log2 fold change” value is reported as 0.402.
RRIRARPPRLPRPRPRPVNEPRP was tested, and the “shrunken log2 fold change” value was 0.356.
RRIRMRPPRLPRPRPRPYRYPRP was tested, and the “shrunken log2 fold change” value was -0.133.
RRIRERPPRLPRPRPRPMFEPRP was tested, and the “shrunken log2 fold change” value was 0.000206.
For RRIRNRPPRLPRPRPRPCEYPRP, the “shrunken log2 fold change” value was -0.0196.
For RRIRTRPPRLPRPRPRPHIHPRP, the “shrunken log2 fold change” value was -0.102.
